Legend:
[1] = target: T1, cynomolgus monkey FcγRIIIaS extracellular domain with C-terminal His-tag (cynomolgus monkey, UniProt Q8SPW2 21-206 at identity 1.00)); assay: SPR; KD of SG1 / KD of variant
T1 construct: also called cyno FcγRIIIaS; FcgRIIIaS
T1 chain: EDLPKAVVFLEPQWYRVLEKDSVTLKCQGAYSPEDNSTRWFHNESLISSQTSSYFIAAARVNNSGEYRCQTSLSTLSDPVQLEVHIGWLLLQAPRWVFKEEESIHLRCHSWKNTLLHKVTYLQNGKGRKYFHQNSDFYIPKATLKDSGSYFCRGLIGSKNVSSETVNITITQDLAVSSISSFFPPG
Description: The kinetic analysis of interactions between these antibodies and FcγR was carried out using BIACORE® T200 or BIACORE® 4000 (GE Healthcare). HBS-EP+ (GE Healthcare) was used as the running buffer, and the measurement temperature was set to 25° C. […] After the measurement, the antibody captured on the chip was washed off by allowing reaction with 10 mM glycine-HCl, pH1.5 and 25 mM NaOH so that the chip was regenerated and used repeatedly. The sensorgrams obtained as measurement results were analyzed by the 1:1 Langmuir binding model using the BIACORE® Evaluation Software to calculate the binding rate constant ka (L/mol/s) and dissociation rate constant kd (1/s), and the dissociation constant KD (mol/L) was calculated from these values. […] Regarding such interactions, KD values were calculated using the following 1:1 binding model described in BIACORE® T100 Software Handbook BR1006-48 Edition AE.

[2] = target: T2, human FcγRIIaR extracellular domain, His-tagged (human, UniProt P12318 34-217); assay: SPR (Biacore), 25C, FcgR bound per antibody captured
T2 construct: also called human FcgRIIaR; FcγRIIa type R
T2 chain: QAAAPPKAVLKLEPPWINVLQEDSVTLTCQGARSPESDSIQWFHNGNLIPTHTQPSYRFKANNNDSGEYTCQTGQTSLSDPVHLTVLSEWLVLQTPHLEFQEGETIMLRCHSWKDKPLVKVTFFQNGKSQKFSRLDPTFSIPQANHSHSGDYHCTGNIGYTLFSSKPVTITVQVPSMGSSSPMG

[3] = target: T3, human FcγRIIIaV extracellular domain, His-tagged (human, UniProt P08637 17-208); assay: as above
T3 construct: also called human FcgRIIIaV
T3 sequence (P08637 17-208 F176V): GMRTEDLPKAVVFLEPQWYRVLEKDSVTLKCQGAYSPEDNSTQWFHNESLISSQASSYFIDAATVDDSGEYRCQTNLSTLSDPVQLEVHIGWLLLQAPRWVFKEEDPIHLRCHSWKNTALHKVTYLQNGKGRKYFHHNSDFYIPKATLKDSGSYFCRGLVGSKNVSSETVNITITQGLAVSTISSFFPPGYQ

[4] = target: T4, human FcγRIIaH extracellular domain, His-tagged (human, UniProt P12318 34-217); assay: as above
T4 construct: also called human FcgRIIaH; FcγRIIa type H
T4 sequence: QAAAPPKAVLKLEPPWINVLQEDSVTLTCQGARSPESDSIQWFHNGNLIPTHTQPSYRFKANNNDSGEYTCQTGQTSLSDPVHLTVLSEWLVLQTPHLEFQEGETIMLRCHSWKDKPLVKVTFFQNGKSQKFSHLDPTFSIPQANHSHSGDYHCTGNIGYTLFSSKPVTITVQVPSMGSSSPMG

[5] = target: T5, human FcγRIIb extracellular domain, His-tagged (human, UniProt P31994 43-217); assay: as above
T5 construct: also called human FcgRIIb
T5 sequence: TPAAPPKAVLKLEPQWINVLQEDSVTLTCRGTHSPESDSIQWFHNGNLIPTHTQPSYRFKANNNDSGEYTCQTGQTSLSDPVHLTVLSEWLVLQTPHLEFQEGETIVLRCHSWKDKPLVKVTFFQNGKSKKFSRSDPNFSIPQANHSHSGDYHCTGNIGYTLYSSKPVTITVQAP

B1: M103205H795-MY292 (heavy chain) with M103202L889-SK1 (light chain) (antibody, human IgG1, kappa, name in EU numbering)
heavy: QVTLKESGPVLVKPTETLTLTCTVSGIDLSHDDISWVRQAPGKGLEWVGIISYAGSTYYASWAKGRLTISKDTSKNQVVLTMTNMDPVDTATYYCARGVPAYSHGGDLWGQGTLVTVSSASTKGPSVFPLAPSSKSTSGGTAALGCLVKDYFPEPVTVSWNSGALTSGVHTFPAVLQSSGLYSLSSVVTVPSSSLGTQTYICNVNHKPSNTKVDKKVEPKSCDKTHTCPPCPAPELLGYPSVFLFPPKPKDTLMISRTPEVTCVVVDVSDEDPEVKFNWYVDGVEVHNAKTKPREELYNSTYRVVSVLTVLHQDWLNGKEYKCKVSNKALPKPIEKTISKAKGQPREPQVYTLPPSREEMTKNQVSLTCLVKGFYPSDIAVEWESNGQPENNYKTTPMVLDSDGSFFLYSKLTVDKSRWQQGNVFSCSVMHEALHNHYTQKSLSLSP
light: DIVMTQSPATLSLSPGERATLSCTSSQSVYHANWLSWFQQKPGQPPKLLIYWASTLAYGVPSRFSGSGSGTDFTLTISSLQPEDAATYYCAGGYGGGRYAFGQGTKVEIKRTVAAPSVFIFPPSDEQLKSGTASVVCLLNNFYPREAKVQWKVDNALQSGNSQESVTEQDSKDSTYSLSSTLTLSKADYEKHKVYACEVTHQGLSSPVTKSFNRGEC
notes: Substitutions introduced into M103205H795-SG1; positions in EU numbering
B1 was tested, and the “KD fold (SG1 = 1)” value [1] was 0.09 fold.

B2: M103205H795-MY311 (heavy chain) with M103202L889-SK1 (light chain) (antibody, human IgG1, kappa, name in EU numbering)
heavy: QVTLKESGPVLVKPTETLTLTCTVSGIDLSHDDISWVRQAPGKGLEWVGIISYAGSTYYASWAKGRLTISKDTSKNQVVLTMTNMDPVDTATYYCARGVPAYSHGGDLWGQGTLVTVSSASTKGPSVFPLAPSSKSTSGGTAALGCLVKDYFPEPVTVSWNSGALTSGVHTFPAVLQSSGLYSLSSVVTVPSSSLGTQTYICNVNHKPSNTKVDKKVEPKSCDKTHTCPPCPAPELLTGPSVFLFPPKPKDTLMISRTPEVTCVVVDVSEEDPEVKFNWYVDGVEVHNAKTKPREELYNSTYRVVSVLTVLHQDWLNGKEYKCKVSNKALPKPIEKTISKAKGQPREPQVYTLPPSREEMTKNQVSLTCLVKGFYPSDIAVEWESNGQPENNYKTTPPVLDSDGSFFLYSKLTVDKSRWQQGNVFSCSVMHEALHNHYTQKSLSLSP
light: DIVMTQSPATLSLSPGERATLSCTSSQSVYHANWLSWFQQKPGQPPKLLIYWASTLAYGVPSRFSGSGSGTDFTLTISSLQPEDAATYYCAGGYGGGRYAFGQGTKVEIKRTVAAPSVFIFPPSDEQLKSGTASVVCLLNNFYPREAKVQWKVDNALQSGNSQESVTEQDSKDSTYSLSSTLTLSKADYEKHKVYACEVTHQGLSSPVTKSFNRGEC
notes: as for B1
B2 was tested, and the “KD fold (SG1 = 1)” value [1] was 0.15 fold.

B3: M103205H795-MY310 (heavy chain) with M103202L889-SK1 (light chain) (antibody, human IgG1, kappa, name in EU numbering)
heavy: QVTLKESGPVLVKPTETLTLTCTVSGIDLSHDDISWVRQAPGKGLEWVGIISYAGSTYYASWAKGRLTISKDTSKNQVVLTMTNMDPVDTATYYCARGVPAYSHGGDLWGQGTLVTVSSASTKGPSVFPLAPSSKSTSGGTAALGCLVKDYFPEPVTVSWNSGALTSGVHTFPAVLQSSGLYSLSSVVTVPSSSLGTQTYICNVNHKPSNTKVDKKVEPKSCDKTHTCPPCPAPELLTGPSVFLFPPKPKDTLMISRTPEVTCVVVDVSEEDPEVKFNWYVDGVEVHNAKTKPREEQYNSTYRVVSVLTVLHQDWLNGKEYKCKVSNTALPKPIEKTISKAKGQPREPQVYTLPPSREEMTKNQVSLTCLVKGFYPSDIAVEWESNGQPENNYKTTPPVLDSDGSFFLYSKLTVDKSRWQQGNVFSCSVMHEALHNHYTQKSLSLSP
light: DIVMTQSPATLSLSPGERATLSCTSSQSVYHANWLSWFQQKPGQPPKLLIYWASTLAYGVPSRFSGSGSGTDFTLTISSLQPEDAATYYCAGGYGGGRYAFGQGTKVEIKRTVAAPSVFIFPPSDEQLKSGTASVVCLLNNFYPREAKVQWKVDNALQSGNSQESVTEQDSKDSTYSLSSTLTLSKADYEKHKVYACEVTHQGLSSPVTKSFNRGEC
notes: as for B1
B3 was tested, and the “KD fold (SG1 = 1)” value [1] was 0.2 fold.

B4: M103205H795-MY312 (heavy chain) with M103202L889-SK1 (light chain) (antibody, human IgG1, kappa, name in EU numbering)
heavy: QVTLKESGPVLVKPTETLTLTCTVSGIDLSHDDISWVRQAPGKGLEWVGIISYAGSTYYASWAKGRLTISKDTSKNQVVLTMTNMDPVDTATYYCARGVPAYSHGGDLWGQGTLVTVSSASTKGPSVFPLAPSSKSTSGGTAALGCLVKDYFPEPVTVSWNSGALTSGVHTFPAVLQSSGLYSLSSVVTVPSSSLGTQTYICNVNHKPSNTKVDKKVEPKSCDKTHTCPPCPAPELLTGPSVFLFPPKPKDTLMISRTPEVTCVVVDVSEEDPEVKFNWYVDGVEVHNAKTKPREEQYNSTYRVVSVLTVLHQDWLNGKEYKCKVSNTALPKPIEKTISKAKGQPREPQVYTLPPSREEMTKNQVSLTCLVKGFYPSDIAVEWESNGQPENNYKTTPMVLDSDGSFFLYSKLTVDKSRWQQGNVFSCSVMHEALHNHYTQKSLSLSP
light: DIVMTQSPATLSLSPGERATLSCTSSQSVYHANWLSWFQQKPGQPPKLLIYWASTLAYGVPSRFSGSGSGTDFTLTISSLQPEDAATYYCAGGYGGGRYAFGQGTKVEIKRTVAAPSVFIFPPSDEQLKSGTASVVCLLNNFYPREAKVQWKVDNALQSGNSQESVTEQDSKDSTYSLSSTLTLSKADYEKHKVYACEVTHQGLSSPVTKSFNRGEC
notes: as for B1
In the case of B4, the “KD fold (SG1 = 1)” value [1] is reported as 0.55 fold.

B5: M103205H795-MY293 (heavy chain) with M103202L889-SK1 (light chain) (antibody, human IgG1, kappa, name in EU numbering)
heavy: QVTLKESGPVLVKPTETLTLTCTVSGIDLSHDDISWVRQAPGKGLEWVGIISYAGSTYYASWAKGRLTISKDTSKNQVVLTMTNMDPVDTATYYCARGVPAYSHGGDLWGQGTLVTVSSASTKGPSVFPLAPSSKSTSGGTAALGCLVKDYFPEPVTVSWNSGALTSGVHTFPAVLQSSGLYSLSSVVTVPSSSLGTQTYICNVNHKPSNTKVDKKVEPKSCDKTHTCPPCPAPELLGYPSVFLFPPKPKDTLMISRTPEVTCVVVDVSEEDPEVKFNWYVDGVEVHNAKTKPREELYNSTYRVVSVLTVLHQDWLNGKEYKCKVSNKALPKPIEKTISKAKGQPREPQVYTLPPSREEMTKNQVSLTCLVKGFYPSDIAVEWESNGQPENNYKTTPKVLDSDGSFFLYSKLTVDKSRWQQGNVFSCSVMHEALHNHYTQKSLSLSP
light: DIVMTQSPATLSLSPGERATLSCTSSQSVYHANWLSWFQQKPGQPPKLLIYWASTLAYGVPSRFSGSGSGTDFTLTISSLQPEDAATYYCAGGYGGGRYAFGQGTKVEIKRTVAAPSVFIFPPSDEQLKSGTASVVCLLNNFYPREAKVQWKVDNALQSGNSQESVTEQDSKDSTYSLSSTLTLSKADYEKHKVYACEVTHQGLSSPVTKSFNRGEC
notes: as for B1
With B5 the “KD fold (SG1 = 1)” value [1] was 0.09 fold.

B6: GpH7-B3 G236A / GpL16-k0 (antibody, human IgG1, kappa)
heavy: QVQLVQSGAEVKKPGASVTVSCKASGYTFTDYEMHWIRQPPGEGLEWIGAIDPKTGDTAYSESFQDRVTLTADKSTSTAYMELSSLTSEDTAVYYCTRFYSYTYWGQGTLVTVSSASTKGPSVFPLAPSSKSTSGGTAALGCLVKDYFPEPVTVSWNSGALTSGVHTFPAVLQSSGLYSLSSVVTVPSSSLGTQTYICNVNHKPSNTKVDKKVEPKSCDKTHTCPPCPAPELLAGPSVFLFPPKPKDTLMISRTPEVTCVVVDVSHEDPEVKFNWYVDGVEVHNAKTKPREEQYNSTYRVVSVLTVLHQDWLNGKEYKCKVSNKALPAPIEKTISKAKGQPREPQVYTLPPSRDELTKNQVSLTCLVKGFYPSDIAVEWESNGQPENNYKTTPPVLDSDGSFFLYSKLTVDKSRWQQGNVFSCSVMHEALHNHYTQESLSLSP
light: DIVMTQSPLSLPVTPGEPASISCQASESLVHSNRNTYLHWYLQKPGQSPQLLIYKVSNRFSGVPDRFSGSGSGTDFTLKISRVEAEDVGVYYCSQNTHVPPTFGQGTKVEIERTVAAPSVFIFPPSDEQLKSGTASVVCLLNNFYPREAKVQWKVDNALQSGNSQESVTEQDSKDSTYSLSSTLTLSKADYEKHKVYACEVTHQGLSSPVTKSFNRGEC
notes: also called B3 variant G236A
In the case of B6, the “Binding to human FcgRs (parent B3 = 100)” value [2] is reported as 168, the “Binding to human FcgRs (parent B3 = 100)” value [3] is reported as 65 and the “Binding to human FcgRs (parent B3 = 100)” value [4] is reported as 165. For the same binder, the “Binding to human FcgRs (parent B3 = 100)” value [5] was 94.

B7: GpH7-B3 P271D / GpL16-k0 (antibody, human IgG1, kappa)
heavy: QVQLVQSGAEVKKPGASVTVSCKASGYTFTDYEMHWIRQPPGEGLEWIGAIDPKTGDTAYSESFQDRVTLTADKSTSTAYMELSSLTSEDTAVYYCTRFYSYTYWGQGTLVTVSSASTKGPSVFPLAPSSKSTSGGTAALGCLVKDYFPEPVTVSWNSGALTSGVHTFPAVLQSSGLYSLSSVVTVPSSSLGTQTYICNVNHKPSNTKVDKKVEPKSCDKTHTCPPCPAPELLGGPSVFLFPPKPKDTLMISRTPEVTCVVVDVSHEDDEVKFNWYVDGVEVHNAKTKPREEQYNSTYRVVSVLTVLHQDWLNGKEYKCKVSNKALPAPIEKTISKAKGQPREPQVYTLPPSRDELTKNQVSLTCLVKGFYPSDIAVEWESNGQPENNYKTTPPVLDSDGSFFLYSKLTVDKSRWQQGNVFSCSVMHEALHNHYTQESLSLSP
light: DIVMTQSPLSLPVTPGEPASISCQASESLVHSNRNTYLHWYLQKPGQSPQLLIYKVSNRFSGVPDRFSGSGSGTDFTLKISRVEAEDVGVYYCSQNTHVPPTFGQGTKVEIERTVAAPSVFIFPPSDEQLKSGTASVVCLLNNFYPREAKVQWKVDNALQSGNSQESVTEQDSKDSTYSLSSTLTLSKADYEKHKVYACEVTHQGLSSPVTKSFNRGEC
notes: also called B3 variant P271D
B7 was tested, and the “Binding to human FcgRs (parent B3 = 100)” value [2] was 55, the “Binding to human FcgRs (parent B3 = 100)” value [3] was 85 and the “Binding to human FcgRs (parent B3 = 100)” value [5] was 110.

B8: GpH7-B3 G236D / GpL16-k0 (antibody, human IgG1, kappa)
heavy: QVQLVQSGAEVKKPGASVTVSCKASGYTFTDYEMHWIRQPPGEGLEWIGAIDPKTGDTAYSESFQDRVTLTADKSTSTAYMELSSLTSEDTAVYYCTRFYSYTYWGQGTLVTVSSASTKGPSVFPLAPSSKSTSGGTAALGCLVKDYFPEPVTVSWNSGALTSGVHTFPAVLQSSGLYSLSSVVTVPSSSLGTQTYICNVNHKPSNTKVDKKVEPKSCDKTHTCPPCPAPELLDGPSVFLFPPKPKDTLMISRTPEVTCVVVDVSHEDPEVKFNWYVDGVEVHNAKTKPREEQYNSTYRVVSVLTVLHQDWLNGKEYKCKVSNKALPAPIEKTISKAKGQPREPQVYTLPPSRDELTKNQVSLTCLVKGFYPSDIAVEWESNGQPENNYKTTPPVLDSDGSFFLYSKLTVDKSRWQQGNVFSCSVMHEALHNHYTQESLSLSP
light: DIVMTQSPLSLPVTPGEPASISCQASESLVHSNRNTYLHWYLQKPGQSPQLLIYKVSNRFSGVPDRFSGSGSGTDFTLKISRVEAEDVGVYYCSQNTHVPPTFGQGTKVEIERTVAAPSVFIFPPSDEQLKSGTASVVCLLNNFYPREAKVQWKVDNALQSGNSQESVTEQDSKDSTYSLSSTLTLSKADYEKHKVYACEVTHQGLSSPVTKSFNRGEC
notes: also called B3 variant G236D
B8 was tested, and the “Binding to human FcgRs (parent B3 = 100)” value [2] was 91, the “Binding to human FcgRs (parent B3 = 100)” value [3] was 25 and the “Binding to human FcgRs (parent B3 = 100)” value [4] was 109. For the same binder, the “Binding to human FcgRs (parent B3 = 100)” value [5] was 212.
